Positions of bridges follow the written chain, without caps; N, C: chain ends. Residues, ends and D or L forms follow the SMILES beside them. *: point of attachment. DOTA = O=C(O)CN1CCN(CC(=O)O)CCN(CC(=O)*)CCN(CC(=O)O)CC1
What was measured:
[1] = tested on: extracellular matrix proteins such as collagen and proteoglycans; test: 3T MRI of atherosclerotic lesion with plaque-targeting contrast agent; type: in vivo, rabbit; details: 0.5 μmol/kg, 1 h before scan, TP 1
Procedure: The presence of atherosclerotic lesions in the rabbits was confirmed by 3T MRI 1 hour after administration of a non-receptor specific plaque-targeting contrast agent ([…], 0.5 μmol/kg body weight, Schering AG, Germany). […] For scanning, the rabbit was placed supine into a plastic bed. Three micropipette tubes filled with 0.5 mL Gadofluorine M (Bayer Schering Pharma AG, Berlin) served as fiducial markers, and were taped into position on the bed. At the beginning of the PET study, these tubes were drained of the Gadofluorine by syringe, and refilled with 0.5 mL of ^64Cu to serve as the PET fiducials. These helped to “co-localize” the plaque regions between the two image modalities.
In this example, a MR T1 W coronal image of a typical atherosclerotic lesion in the femoral artery of a rabbit 4 weeks after air dessication-induced injury (TP 1) is shown (FIG. 6). Gadofluorine M (0.5 μmol/kg body weight) was given 1 h before the scan. […] MRI confirmed the presence of a thickened neointima in the injured vessel characteristic of the atherosclerotic-like plaques induced in this model.

[2] = in vivo; details: rabbit, iv, 20 MBq, total radioactivity
Procedure: The blood clearance studies were performed in normal rabbits (n=4) to evaluate the pharmacokinetics of tracer in vivo. About 20 MBq of ^64Cu-DOTA-C-ANF was injected intravenously into the left ear of rabbit, and blood sample (0.2 mL) was drawn from the contralateral ear over the period of 1 h (1 min, 3 min, 5 min, 10 min, 20 min, 40 min and 60 min). The activity of the blood samples were counted in gamma counter and presented in percent injected dose per gram (ID %/g). […] (FIG. 7). This tracer therefore is a highly sensitive means by which to detect a trace amount of ^64Cu-DOTA-C-ANF in the atherosclerotic animal model

Compound | contrast agent at injured femoral artery (MR T1W image) [1] | contrast agent uptake in control artery (MR T1W image) [1] | tissue uptake at 1 min [2] [%ID/g] | tissue uptake at 0.05 h [2] [%ID/g] | tissue uptake at 1 h [2] [%ID/g]
CC(C(=O)NCC(=O)NCCCC[C@H](NC(=O)CO[C@H]1O[C@H](CO)[C@@H](O)[C@H](O)[C@@H]1O)C(=O)N1CCN(S(=O)(=O)C(F)(F)C(F)(F)C(F)(F)C(F)(F)C(F)(F)C(F)(F)C(F)(F)C(F)(F)F)CC1)N1CCN(CC(=O)O)CCN(CC(=O)O)CCN(CC(=O)O)CC1 (some centres unmarked) [Gadofluorine M] | binding | weak uptake | – | – | –
CC[C@H](C)[C@@H]1NC(=O)[C@H](CCCNC(=N)N)NC(=O)[C@H](CC(=O)O)NC(=O)[C@H]([C@@H](C)CC)NC(=O)[C@H](CCCNC(=N)N)NC(=O)CNC(=O)CNC(=O)[C@H](Cc2ccccc2)NC(=O)[C@@H](NC(=O)[C@H](CO)NC(=O)[C@H](CO)NC(=O)[C@H](CCCNC(=N)N)NC(=O)CN2CCN(CC(=O)O)CCN(CC(=O)O)CCN(CC(=O)O)CC2)CSSC[C@@H](C(N)=O)NC(=O)[C@H](C)NC(=O)CNC1=O [^64Cu-DOTA-C-ANF, metal not drawn] ({DOTA}-RSSCFGGRIDRIGAC-NH2; disulfide 4-15) | – | – | 0.22 | 0.1 | 0.02

Source: patent publication US8436140B2, “Natriuretic peptide-mediated imaging of atherosclerotic plaque” (priority 2008, dated 2013)
